Key:
Test in all cases: Kinetic parameters of hydrolysis of cephalosporin conjugates
Assay type in all cases: biochemical
Settings in all cases: other: compound as substrate of IMP-28; pH 7.2; 25.0 °C
[1] = substrate: [H][C@]12SCC(CS[C@H](Cc3ccccc3)C(=O)O)=C(C(=O)O)N1C(=O)[C@H]2NC(=O)Cc1ccccc1
[2] = substrate: [H][C@]12SCC(CSCc3ccccc3)=C(C(=O)O)N1C(=O)[C@H]2NC(=O)Cc1ccccc1
[3] = substrate: [H][C@]12SCC(CSCCc3ccccc3)=C(C(=O)O)N1C(=O)[C@H]2NC(=O)Cc1ccccc1
[4] = substrate: [H][C@]12SCC(CS[C@@H](Cc3ccccc3)C(=O)O)=C(C(=O)O)N1C(=O)[C@H]2NC(=O)Cc1ccccc1
[5] = substrate: [H][C@]12SCC(CSC(C(=O)O)c3ccccc3)=C(C(=O)O)N1C(=O)[C@H]2NC(=O)Cc1ccccc1

B1: IMP-28 (Klebsiella oxytoca) (protein)
chain: ESLPDLKIERLDEGVYVHTSFEEVNGWGVVPKHGLVVLVNTEAYLIDTPFTAKDTEKLVTWFVGRGYKIKGSISSHFHSDSTGGIEWLNSQSIPTYASELTNELLKKDGKVQAKNSFGGVSYWLVKNKIEVFYPGPGHTPDNVVVWLPENRVLFGGCFVKPYGLGNLGDANLEAWPKSAKLLMSKYGKAKLVVPSHSEVGDASLLKRTLEHAVKGLNESKKPSKPSN
[1]
  Km: 249 ± 7 µM
  kcat: 2.83 s⁻¹
  kcat/Km: 11000 M⁻¹ s⁻¹
[2]
  Km: 20.5 ± 4 µM
  kcat: 10.8 s⁻¹
  kcat/Km: 529000 M⁻¹ s⁻¹
[3]
  Km: 83.3 ± 16 µM
  kcat: 6.12 s⁻¹
  kcat/Km: 73000 M⁻¹ s⁻¹
[4]
  Km: 175 ± 19 µM
  kcat: 41 s⁻¹
  kcat/Km: 234000 M⁻¹ s⁻¹
[5]
  Km: 129 ± 13 µM
  kcat: 0.386 s⁻¹
  kcat/Km: 3000 M⁻¹ s⁻¹
